From article doi:10.1101/431791

Target: AUR1-mRFP (A. thaliana) (UniProt Q9M077)
Assay: FRET or BRET

Chain of UniProt Q9M077 (Q9M077 whole entry): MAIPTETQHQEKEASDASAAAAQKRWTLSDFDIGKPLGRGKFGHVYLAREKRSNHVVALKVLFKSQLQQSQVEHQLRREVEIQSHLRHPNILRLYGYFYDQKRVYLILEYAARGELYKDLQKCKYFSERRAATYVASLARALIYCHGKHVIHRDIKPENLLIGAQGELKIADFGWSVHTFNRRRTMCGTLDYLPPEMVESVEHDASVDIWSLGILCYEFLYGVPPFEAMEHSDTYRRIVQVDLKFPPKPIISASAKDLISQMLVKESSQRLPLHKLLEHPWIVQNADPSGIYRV

Row | Substance | donor (GFP) fluorescence lifetime with AUR1-RFP [ns]
1 | TPXL2-GFP (natural protein) | 1.9
2 | TPXL3-GFP (natural protein) | 1.9
